# Test results: patent US20240067758A1 (UCB, published 2024)
# T1: Human IL22 (human, UniProt Q9GZX6 34-179)
# T1 construct: IL22 of the Biacore and cell assays
# T1 sequence: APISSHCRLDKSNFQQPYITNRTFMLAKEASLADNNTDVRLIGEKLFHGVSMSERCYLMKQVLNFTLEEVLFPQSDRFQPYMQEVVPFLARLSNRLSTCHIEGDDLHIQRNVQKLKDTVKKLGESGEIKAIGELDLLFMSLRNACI
# T2: Mouse IL22 (mouse, UniProt Q9JJY9 34-179)
# T2 sequence (looked up): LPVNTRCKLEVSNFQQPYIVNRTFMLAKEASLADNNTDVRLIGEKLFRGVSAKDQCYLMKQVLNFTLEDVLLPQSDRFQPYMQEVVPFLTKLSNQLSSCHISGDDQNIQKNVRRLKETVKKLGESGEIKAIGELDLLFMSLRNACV
# T3: Cynomolgus IL22 (cynomolgus, UniProt G7PHZ7 34-179)
# T3 construct: also called Cyno IL22; Cyno IL-22
# T3 sequence: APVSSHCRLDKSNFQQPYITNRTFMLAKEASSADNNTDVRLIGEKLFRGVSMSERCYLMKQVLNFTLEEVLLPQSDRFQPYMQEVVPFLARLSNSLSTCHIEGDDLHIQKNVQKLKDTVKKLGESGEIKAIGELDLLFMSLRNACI
# T4: Mouse IL13 (mouse, UniProt P20109 26-131, limits assumed)
# T4 sequence (looked up): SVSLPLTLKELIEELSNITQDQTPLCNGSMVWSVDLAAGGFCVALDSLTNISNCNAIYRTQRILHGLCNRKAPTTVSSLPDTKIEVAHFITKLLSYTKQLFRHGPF
# Tests used:
# Human IL22 [1] = molecular target: T1, Human IL22; assay: SPR; sample stressed 2 weeks at 37 °C, pH 8.0 (Asn95 of light chain CDR3 >40% deamidated)
# Human IL22 [2] = molecular target: T1, Human IL22; assay: SPR; non-stressed T0 sample of the deamidation stress study
# Human IL22 [3] = molecular target: T1, Human IL22; assay: cell-based or functional assay
# Mouse IL22 = molecular target: T2, Mouse IL22; assay: SPR Biacore T200; TrYbe captured on anti-human F(ab')2, analyte 10-0.3125 nM; mean KD
# Protocol: (§1) BIA (Biomolecular Interaction Analysis) was performed using T200 (GE Healthcare). Affinipure IgG-F(ab′)₂ Fragment goat anti-human IgG, F(ab′)₂ fragment specific (Jackson ImmunoResearch) was immobilized on a CM5 Sensor Chip via amine coupling chemistry to a capture level of ˜5000 response units (RUs). HBS-EP+buffer (10 mM HEPES pH 7.4, 0.15 M NaCl, 3 mM EDTA, 0.05% Surfactant P20, GE Healthcare) was used as the running buffer with a flow rate of 10 μL/min.
# (§2) The surface was generated by 2×10 μL injections of 50 mM HCl, interspersed by a 10 μL injection of 5 mM NaOH at flowrate of 10 μL/min. Background subtraction binding curves were analyzed using the T200 evaluation software (version 3.0) following standard procedures. Kinetic parameters were determined from the fitting algorithm.
# Cynomolgus IL13 = molecular target: T5, Cynomolgus IL13 (cynomolgus, UniProt Q0PW92 21-132); assay: as above
# T5 construct: also called Cyno IL-13
# Protocol: as §1, §2
# Human IL13 [4] = molecular target: T6, Human IL13 (human, UniProt P35225 35-146, limits assumed); assay: as above
# Protocol: as §1, §2
# Cynomolgus IL22 = molecular target: T3, Cynomolgus IL22; assay: as above
# Protocol: as §1, §2
# Human IL22 [5] = molecular target: T1, Human IL22; assay: as above
# Protocol: as §1, §2
# Cynomolgus Albumin = molecular target: T7, Cynomolgus Albumin (cynomolgus, UniProt A2V9Z4 25-608); assay: SPR Biacore T200; TrYbe captured on anti-human F(ab')2, analyte 100-3 nM; mean KD
# T7 construct: also called Cyno Albumin
# Protocol: as §1, §2
# Human Albumin = molecular target: T8, Human Albumin (human, UniProt P02768 25-609); assay: as above
# T8 construct: also called human serum albumin; HSA
# Protocol: as §1, §2
# Mouse Albumin = Mouse Albumin (mouse, UniProt P07724 25-608); assay: as above
# Protocol: as §1, §2
# Mouse IL13 = molecular target: T4, Mouse IL13; assay: SPR Biacore T200; TrYbe captured on anti-human F(ab')2, mouse IL13 titrated
# Human IL13 [6] = molecular target: T6, Human IL13; assay: cell-based or functional assay
binder,measurement,setting,value
"IL13/IL22 TrYbe (other, also called batches PB8056 and PB7916) heavy: EVQLVESGGGLVQPGGSLRLSCAVSGFSLSSYAMIWVRQAPGKGLEWIGIIDIEGSTYYASWAKGRFTISRDNSKNTVYLQMNSLRAEDTAVYYCARDRFVGVDIFDPWGQGTLVTVSSASTKGPSVFPLAPSSKSTSGGTAALGCLVKDYFPEPVTVSWNSGALTSGVHTFPAVLQSSGLYSLSSVVTVPSSSLGTQTYICNVNHKPSNTKVDKKVEPKSCSGGGGSGGGGSEVQLLESGGGLVQPGGSLRLSCAVSGIDLSNYAINWVRQAPGKCLEWIGIIWASGTTFYATWAKGRFTISRDNSKNTVYLQMNSLRAEDTAVYYCARTVPGYSTAPYFDLWGQGTLVTVSSGGGGSGGGGSGGGGSGGGGSDIQMTQSPSSVSASVGDRVTITCQSSPSVWSNFLSWYQQKPGKAPKLLIYEASKLTSGVPSRFSGSGSGTDFTLTISSLQPEDFATYYCGGGYSSISDTTFGCGTKVEIKRT light: AVQLTQSPSSLSASVGDRVTITCQASEDIYTNLAWYQQKPGKAPKLLIYWASTLASGVPSRFSGSGSGTDFTLTISSLQPEDFATYYCQASVYGNAADSRYTFGGGTKVEIKRTVAAPSVFIFPPSDEQLKSGTASVVCLLNNFYPREAKVQWKVDNALQSGNSQESVTEQDSKDSTYSLSSTLTLSKADYEKHKVYACEVTHQGLSSPVTKSFNRGECSGGGGSGGGGSEVQLVQSGAEVKKPGSSVKVSCKASGYSFTSYYIHWVRQAPGQCLEWMGRIGPGSGDINYNEKFKGRATFTVDKSTSTAYMELSSLRSEDTAVYYCARFHYDGADWGQGTLVTVSSGGGGSGGGGSGGGGSGGGGSDIQMTQSPSSLSASVGDRVTITCKASQNINENLDWYQQKPGKAPKLLIYYTDILQTGIPSRFSGSGSGTDYTLTISSLQPEDFATYYCYQYYSGYTFGCGTKLEIKRT",Kd,Human IL22 [1],0.03 nM
same,koff,Human IL22 [1],3.2e-05 s⁻¹
same,kon,Human IL22 [1],1.1e+06 M⁻¹ s⁻¹
same,Kd,Human IL22 [2],0.026 nM
same,koff,Human IL22 [2],3.1e-05 s⁻¹
same,kon,Human IL22 [2],1.2e+06 M⁻¹ s⁻¹
same,"IC50 (M) Geomean; IL22-induced IL-10 release, COLO205 cells; batch PB7916 (N = 4)",Human IL22 [3],3.4e-11 M
same,"IC50 (M) Geomean; IL22-induced IL-10 release, COLO205 cells; batch PB8056 (N = 4)",Human IL22 [3],3.66e-11 M
same,Kd,Mouse IL22,14 to 25 nM
same,Kd,Cynomolgus IL13,< 0.25 nM
same,Kd,Human IL13 [4],< 0.1 nM
same,Kd,Cynomolgus IL22,< 0.1 nM
same,Kd,Human IL22 [5],< 0.1 nM
same,Kd,Cynomolgus Albumin,1 to 3 nM
same,Kd,Human Albumin,1 to 3 nM
same,Kd,Mouse Albumin,5 to 6 nM
same,binding result,Mouse IL13,no binding (tested: 10 nM to 0.3125 nM)
same,"IC50 (read off the curve), inhibition of eotaxin-3 secretion, primary human keratinocytes stimulated with IL-13 and IL-22 at 100 ng/ml",Human IL13 [6],~6 nM
